From patent publication US20240287165A1 (GENERAL HOSPITAL, published 2024)

Tests used:
[1] = biological target: T1, full-length wild type human ApoE3 recombinant protein (His-tagged) (human, UniProt P02649 19-317); assay: BLI (BLItz), mAb 1H4 on protein A biosensor, run with 571.4 nM ApoE3, global fit; columns shifted: value stands under 'Ka Error' but is the kd (0.04142/2900000 = 14.28 nM)
T1 construct: Recombinant protein from Innovagen; also called ApoE3 WT full-length protein; APOE3 WT; not shown: histidine tag
Description: (§1) The binding affinity between ApoE3 and the monoclonal antibody 1H4 (mAb 1H4) was determined using the advanced kinetic module of the BLItz system (Blitz Pro, FB-609928, ver. 1.3.1.3). Briefly, a protein A biosensor was loaded with mAb 1H4 and both association and dissociation constants were determined at increasing concentrations of the full length ApoE3 protein (Innovagen) from 0 to 571.4 nM. The following running settings were used: 30 s initial baseline in the experimental media, 120 s loading of the ligand (mAb 1H4) on the biosensors, 30 s new baseline before association (120 s) and dissociation (120 s) steps. A total of 6 runs of 420 s at 2200 rpm and room temperature were conducted to determine the binding parameters of ApoE3. Global fitting and step corrections of the dissociation experiments were performed using the BLItz software (ver. 1.1.0.7). […] KD, Ka and Kd were measured (table 10) and calculated using the BLItz system. Top panel is representative of the association steps, the bottom panel is representative of the dissociation steps of the binding kinetic. The X and Y axes depicts time in second and binding in nM, respectively.

[2] = biological target: T1, full-length wild type human ApoE3 …; assay: ELISA, parental hybridoma clone
[3] = biological target: T2, full-length ApoE3ch (ApoE3 Christchurch R136S) mutant recombinant protein (His-tagged) (human, UniProt P02649 19-317); assay: ELISA, parental hybridoma clone
T2 construct: also called ApoE3ch full length protein; APOE3ch Mutant; not shown: histidine tag

[4] = biological target: T3, wild type ApoE peptide KLH-CTEELRVRLASHLRK-CONH2 (human, not fully specified; C-terminal amide (CONH2); printed with KLH on the added N-terminal cysteine); assay: ELISA, parental hybridoma clone
T3 construct: also called WT peptide; ApoE3 WT peptide
T3 peptide: CTEELRVRLASHLRK

[5] = biological target: T4, ApoEch peptide KLH-CTEELRVSLASHLRK-CONH2 (human, not fully specified; C-terminal amide (CONH2); printed with KLH on the added N-terminal cysteine); assay: ELISA, parental hybridoma clone
T4 construct: also called Mut peptide; mutant ApoE peptide
T4 peptide: CTEELRVSLASHLRK

[6] = biological target: T5, mouse recombinant ApoE (mouse, UniProt P08226 19-311); assay: ELISA, His-tagged target on anti-His plate, serial antibody dilutions, anti-mouse HRP, O.D. 450 nm
T5 construct: also called mouse recombinant ApoE3; msApoE
T5 sequence (looked up): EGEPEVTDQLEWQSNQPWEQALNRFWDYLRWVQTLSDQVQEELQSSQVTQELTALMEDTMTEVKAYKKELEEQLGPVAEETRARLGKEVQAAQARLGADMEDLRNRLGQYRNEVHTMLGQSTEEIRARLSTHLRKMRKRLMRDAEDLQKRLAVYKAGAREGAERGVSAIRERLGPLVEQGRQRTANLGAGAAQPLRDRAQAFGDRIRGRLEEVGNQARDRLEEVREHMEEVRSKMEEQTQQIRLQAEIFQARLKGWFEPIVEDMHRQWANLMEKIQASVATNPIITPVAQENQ
Description: To test selectivity of the antibodies for huApoE3WT, huApoE3ch or msApoE, anti-his ELISA coated plates were incubated with 0.0025 μg/μL of the target protein for 2 h at R.T. under gentle shaking. Wells were washed 5 times with 1X wash buffer (R&D) and subsequently incubated with serial dilutions of Innovagen antibody of interest over night at 4° C. on a shaker (100 μL/well). The following day, wells were washed 5 times with sample buffer and incubated for 45 minutes using Rabbit-anti-mouse HRP-conjugated buffer (1:10,000; 100 μL/well; Abcam). After 5 more washes, plates were incubated with chromogen A+B 1:1 to initiate the colorimetric reaction (100 μL/well). The reaction was stopped with 2 N […] (R&D stop solution., 50 μL/well) and absorbance detected at 450 nm spectroscopically.

[7] = biological target: T4, ApoEch peptide KLH-CTEELRVSLASHLRK-CONH2; assay: ELISA of 1H4-2 subclone serum on ApoE3ch peptide, O.D. 450 nm against dilution factor
[8] = biological target: T1, full-length wild type human ApoE3 …; assay: BLI (BLItz), mAb 1H4 on protein A biosensor, run with 142.9 nM ApoE3, global fit
Description: as §1

[9] = biological target: T1, full-length wild type human ApoE3 …; assay: BLI (BLItz), mAb 1H4 on protein A biosensor, run with 35.71 nM ApoE3, global fit
Description: as §1

[10] = biological target: T1, full-length wild type human ApoE3 …; assay: BLI (BLItz), mAb 1H4 on protein A biosensor, run with 285.7 nM ApoE3, global fit; columns shifted: value stands under 'Ka Error' but is the kd (0.04142/2900000 = 14.28 nM)
Description: as §1

[11] = biological target: T1, full-length wild type human ApoE3 …; assay: BLI (BLItz), mAb 1H4 on protein A biosensor, run with 285.7 nM ApoE3, global fit
Description: as §1

[12] = biological target: T1, full-length wild type human ApoE3 …; assay: BLI (BLItz), mAb 1H4 on protein A biosensor, run with 142.9 nM ApoE3, global fit; columns shifted: value stands under 'Ka Error' but is the kd (0.04142/2900000 = 14.28 nM)
Description: as §1

[13] = biological target: T1, full-length wild type human ApoE3 …; assay: BLI (BLItz), mAb 1H4 on protein A biosensor, run with 571.4 nM ApoE3, global fit
Description: as §1

[14] = biological target: T1, full-length wild type human ApoE3 …; assay: BLI (BLItz), mAb 1H4 on protein A biosensor, run with 71.43 nM ApoE3, global fit
Description: as §1

[15] = biological target: T2, full-length ApoE3ch (ApoE3 Christchurch …); assay: ELISA of 1H4-2 subclone serum on ApoE3ch full length protein, O.D. 450 nm against dilution factor
[16] = biological target: T1, full-length wild type human ApoE3 …; assay: BLI (BLItz), mAb 1H4 on protein A biosensor, run with 71.43 nM ApoE3, global fit; columns shifted: value stands under 'Ka Error' but is the kd (0.04142/2900000 = 14.28 nM)
Description: as §1

[17] = biological target: T1, full-length wild type human ApoE3 …; assay: BLI (BLItz), mAb 1H4 on protein A biosensor, run with 35.71 nM ApoE3, global fit; columns shifted: value stands under 'Ka Error' but is the kd (0.04142/2900000 = 14.28 nM)
Description: as §1

T1 sequence (P02649 19-317): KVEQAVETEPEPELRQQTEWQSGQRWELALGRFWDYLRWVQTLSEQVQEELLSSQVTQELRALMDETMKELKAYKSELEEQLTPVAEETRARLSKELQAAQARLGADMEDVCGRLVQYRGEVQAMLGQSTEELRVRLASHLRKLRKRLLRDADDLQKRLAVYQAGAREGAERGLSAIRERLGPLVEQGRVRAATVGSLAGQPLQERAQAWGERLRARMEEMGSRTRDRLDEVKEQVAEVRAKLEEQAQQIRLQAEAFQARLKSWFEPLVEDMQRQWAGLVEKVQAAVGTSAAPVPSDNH
T2 sequence (P02649 19-317 R154S): as the sequence (P02649 19-317) above, with R136S counted along it

B1: antibody 1H4-2 (antibody, V domains shown)
VH: EVKLVESGGGVVQPGGSLKLSCAASGFTFSSYTMSWVRQTPEKRLEWVAKIRNGGGITYYLDTLKGRFTISRDNAKNTLYLQMSSLKSEDTAIYFCARHYYGSEDYFDYWGQGTTLTVSS
VL: DNVLTQSPASLAVSLGQRATISCKASQSVDYDGDSYMNWYQQKPGQPPKVFIYAASNLESGIPARFSGSGSGTDFTLNIHPVEEEDAATYYCQQSNEDPWTFGGGTKLEIK
notes: also called mAb 1H4; monoclonal 1H4 antibody
koff [1]: 0.0414 s⁻¹ | absorbance (ELISA) [2]: 2.11 absorbance | absorbance (ELISA) [3]: 0.056 absorbance | absorbance (ELISA) [4]: 2.58 absorbance | absorbance (ELISA) [5]: 0.07 absorbance | binding result [6]: no binding (tested: 1:500 dilution) | binding result [7]: no binding (tested: 1:10 dilution) | Kd [8]: 14.3 nM | kon [8]: 2.9e+06 M⁻¹ s⁻¹ | Kd [9]: 14.3 nM | kon [9]: 2.9e+06 M⁻¹ s⁻¹ | koff [10]: 0.0414 s⁻¹ | Kd [11]: 14.3 nM | kon [11]: 2.9e+06 M⁻¹ s⁻¹ | koff [12]: 0.0414 s⁻¹ | Kd [13]: 14.3 nM | kon [13]: 2.9e+06 M⁻¹ s⁻¹ | Kd [14]: 14.3 nM | kon [14]: 2.9e+06 M⁻¹ s⁻¹ | binding result [15]: no binding (tested: 1:10 dilution) | koff [16]: 0.0414 s⁻¹ | koff [17]: 0.0414 s⁻¹
